# According to patent publication US20150344570A1 (published 2015):
# T1: FcγRIIb (human, UniProt P31994 43-217)
# T1 construct: extracellular domain; also called FcgRIIb; CD32B
# T1 sequence (looked up): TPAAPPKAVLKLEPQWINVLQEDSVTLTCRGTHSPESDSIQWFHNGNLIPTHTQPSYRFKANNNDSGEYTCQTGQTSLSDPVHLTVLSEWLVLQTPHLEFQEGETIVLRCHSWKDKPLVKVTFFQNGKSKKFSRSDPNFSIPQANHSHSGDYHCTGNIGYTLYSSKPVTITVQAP
# T2: FcγRIIb extracellular domain with C-terminal His tag (human, UniProt P31994 43-217)
# T2 construct: extracellular domain; Soluble receptor expressed in FreeStyle293 cells, used as analyte in Biacore; also called FcgRIIb; 2b
# T2 sequence (looked up): T1 sequence (looked up)
# B1: GpH7-A5/GpH7-B3 variant P329_01G/GpL16-k0 (antibody, human IgG1, kappa)
# heavy 1: not shown
# heavy 2: not shown
# light: DIVMTQSPLSLPVTPGEPASISCQASESLVHSNRNTYLHWYLQKPGQSPQLLIYKVSNRFSGVPDRFSGSGSGTDFTLKISRVEAEDVGVYYCSQNTHVPPTFGQGTKVEIERTVAAPSVFIFPPSDEQLKSGTASVVCLLNNFYPREAKVQWKVDNALQSGNSQESVTEQDSKDSTYSLSSTLTLSKADYEKHKVYACEVTHQGLSSPVTKSFNRGEC
# notes: He Ab; mutation in the GpH7-B3 chain only; also called He Ab
# B2: GpH7-A5/GpH7-B3 variant A327_19Q/GpL16-k0 (antibody, human IgG1, kappa)
# heavy 1: not shown
# heavy 2: not shown
# light: B1 light
# notes: as for B1
# B3: GpH7-A5/GpH7-B3 variant A327_20W/GpL16-k0 (antibody, human IgG1, kappa)
# heavy 1: not shown
# heavy 2: not shown
# light: B1 light
# notes: as for B1
# B4: GpH7-A5/GpH7-B3 variant A327_16H/GpL16-k0 (antibody, human IgG1, kappa)
# heavy 1: not shown
# heavy 2: not shown
# light: B1 light
# notes: as for B1
# B5: GpH7-A5/GpH7-B3 variant S324_12R/GpL16-k0 (antibody, human IgG1, kappa)
# heavy 1: not shown
# heavy 2: not shown
# light: B1 light
# notes: Heterodimerized anti-glypican-3 IgG1; mutation in the GpH7-B3 chain only; also called He Ab
# B6: GpH7-A5/GpH7-B3 variant Y296_20W/GpL16-k0 (antibody, human IgG1, kappa)
# heavy 1: not shown
# heavy 2: not shown
# light: B1 light
# notes: as for B5
# B7: GpH7-A5/GpH7-B3 variant S324_16H/GpL16-k0 (antibody, human IgG1, kappa)
# heavy 1: not shown
# heavy 2: not shown
# light: B1 light
# notes: as for B5
# B8: GpH7-A5/GpH7-B3 variant S298_03V/GpL16-k0 (antibody, human IgG1, kappa)
# heavy 1: not shown
# heavy 2: not shown
# light: B1 light
# notes: as for B5
# B9: GpH7-A5/GpH7-B3 variant Y300_14T/GpL16-k0 (antibody, human IgG1, kappa)
# heavy 1: not shown
# heavy 2: not shown
# light: B1 light
# notes: as for B5
# B10: GpH7-A5/GpH7-B3 variant S324_11K/GpL16-k0 (antibody, human IgG1, kappa)
# heavy 1: not shown
# heavy 2: not shown
# light: B1 light
# notes: as for B5
# B11: GpH7-A5/GpH7-B3 variant S298_16H/GpL16-k0 (antibody, human IgG1, kappa)
# heavy 1: not shown
# heavy 2: not shown
# light: B1 light
# notes: as for B5
# B12: GpH7-A5/GpH7-B3 variant S298_15Y/GpL16-k0 (antibody, human IgG1, kappa)
# heavy 1: not shown
# heavy 2: not shown
# light: B1 light
# notes: as for B5
# B13: GpH7-A5/GpH7-B3 variant S324_01G/GpL16-k0 (antibody, human IgG1, kappa)
# heavy 1: not shown
# heavy 2: not shown
# light: B1 light
# notes: as for B5
# B14: GpH7-A5/GpH7-B3 variant S324_19Q/GpL16-k0 (antibody, human IgG1, kappa)
# heavy 1: not shown
# heavy 2: not shown
# light: B1 light
# notes: as for B5
# B15: GpH7-A5/GpH7-B3 variant K334_09D/GpL16-k0 (antibody, human IgG1, kappa)
# heavy 1: not shown
# heavy 2: not shown
# light: B1 light
# notes: as for B5
# B16: GpH7-A5/GpH7-B3 variant P329_02A/GpL16-k0 (antibody, human IgG1, kappa)
# heavy 1: not shown
# heavy 2: not shown
# light: B1 light
# notes: as for B5
# B17: GpH7-A5/GpH7-B3 variant Y300_07I/GpL16-k0 (antibody, human IgG1, kappa)
# heavy 1: not shown
# heavy 2: not shown
# light: B1 light
# notes: as for B5
# B18: GpH7-A5/GpH7-B3 variant S324_02A/GpL16-k0 (antibody, human IgG1, kappa)
# heavy 1: not shown
# heavy 2: not shown
# light: B1 light
# notes: as for B5
# B19: GpH7-A5/GpH7-B3 variant S298_07I/GpL16-k0 (antibody, human IgG1, kappa)
# heavy 1: not shown
# heavy 2: not shown
# light: B1 light
# notes: as for B5
# B20: GpH7-A5/GpH7-B3 variant Q295_13S/GpL16-k0 (antibody, human IgG1, kappa)
# heavy 1: not shown
# heavy 2: not shown
# light: B1 light
# notes: as for B5
# B21: GpH7-A5/GpH7-B3 variant S298_04F/GpL16-k0 (antibody, human IgG1, kappa)
# heavy 1: not shown
# heavy 2: not shown
# light: B1 light
# notes: as for B5
# B22: GpH7-A5/GpH7-B3 variant P329_11K/GpL16-k0 (antibody, human IgG1, kappa)
# heavy 1: not shown
# heavy 2: not shown
# light: B1 light
# notes: as for B5
# B23: GpH7-A5/GpH7-B3 variant Y300_01G/GpL16-k0 (antibody, human IgG1, kappa)
# heavy 1: not shown
# heavy 2: not shown
# light: B1 light
# notes: as for B5
# B24: GpH7-A5/GpH7-B3 variant S298_14T/GpL16-k0 (antibody, human IgG1, kappa)
# heavy 1: not shown
# heavy 2: not shown
# light: B1 light
# notes: as for B5
# B25: GpH7-A5/GpH7-B3 variant Y300_08L/GpL16-k0 (antibody, human IgG1, kappa)
# heavy 1: not shown
# heavy 2: not shown
# light: B1 light
# notes: as for B5
# B26: GpH7-A5/GpH7-B3 variant S298_09D/GpL16-k0 (antibody, human IgG1, kappa)
# heavy 1: not shown
# heavy 2: not shown
# light: B1 light
# notes: as for B5
# B27: GpH7-A5/GpH7-B3 variant P329_12R/GpL16-k0 (antibody, human IgG1, kappa)
# heavy 1: not shown
# heavy 2: not shown
# light: B1 light
# notes: as for B5
# B28: GpH7-A5/GpH7-B3 variant Q295_16H/GpL16-k0 (antibody, human IgG1, kappa)
# heavy 1: not shown
# heavy 2: not shown
# light: B1 light
# notes: as for B5
# B29: GpH7-A5/GpH7-B3 variant Q295_18N/GpL16-k0 (antibody, human IgG1, kappa)
# heavy 1: not shown
# heavy 2: not shown
# light: B1 light
# notes: as for B5
# B30: GpH7-A5/GpH7-B3 variant Y300_13S/GpL16-k0 (antibody, human IgG1, kappa)
# heavy 1: not shown
# heavy 2: not shown
# light: B1 light
# notes: as for B5
# B31: GpH7-A5/GpH7-B3 variant Q295_14T/GpL16-k0 (antibody, human IgG1, kappa)
# heavy 1: not shown
# heavy 2: not shown
# light: B1 light
# notes: as for B5
# B32: GpH7-A5/GpH7-B3 variant S324_10E/GpL16-k0 (antibody, human IgG1, kappa)
# heavy 1: not shown
# heavy 2: not shown
# light: B1 light
# notes: as for B5
# Target: T3, FcγRIa (human, UniProt P12314 16-292)
# T3 construct: extracellular domain; also called FcgRI; CD64
# T3 sequence (P12314 16-292): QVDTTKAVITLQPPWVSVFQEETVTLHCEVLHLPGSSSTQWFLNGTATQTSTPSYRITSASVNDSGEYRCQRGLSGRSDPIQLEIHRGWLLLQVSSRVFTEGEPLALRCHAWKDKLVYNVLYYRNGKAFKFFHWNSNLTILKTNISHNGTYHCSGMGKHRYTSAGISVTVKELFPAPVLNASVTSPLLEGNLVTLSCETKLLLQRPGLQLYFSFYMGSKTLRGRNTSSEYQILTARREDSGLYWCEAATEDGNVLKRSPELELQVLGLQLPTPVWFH
# Assay: ratio of He/Con_1a to He/Con_2b (FcγRIa over FcγRIIb), SPR
# Experimental: (§1) The heterodimerized antibodies He Abs in which one of the H chains was introduced with an alteration were assayed for their binding activities to each activating FcγR and inhibitory FcγR according to the method described in Example 4. […] The activating FcγRs in FIGS. 26, 27, 28, and 29 are FcγRIa, FcγRIIa (R), FcγRIIa (H), and FcγRIIIa, respectively.
# (§2) Analysis of interaction between objective antibody and the FcγR was carried out using Biacore T100 (GE Healthcare). HBS-EP+ (GE Healthcare) was used as the running buffer, and the measurement temperature was set to 25° C. Chips produced by immobilizing the antigen peptide by the amine coupling method to a Series S Sencor Chip CM5 (GE Healthcare), or alternatively, chips produced by allowing preliminarily biotinylated antigen peptides to interact with and immobilize onto a Series S Sensor Chip SA (certified) (GE Healthcare) were used. Antibodies of interest were captured onto an antigen peptide-immobilized chip, and allowed to interact to each FcγR diluted with running buffer. To regenerate and repeatedly use the chip, the antibodies captured on the chip were washed off by reacting 10 mM glycine-HCl, pH 1.5.
row,He_1a/2b (Ia/IIb),Binder
1,2.42,B1
2,1.78,B2
3,1.24,B3
4,1.52,B4

# Target: T1, FcγRIIb
# Assay: SPR (Biacore), captured antibody, soluble FcγR; relative to GpH7-A5/GpH7-B3/GpL16-k0 = 100
# Experimental: as §1, §2
row,He/Con_2b,Binder
1,41.7 % of control,B1
2,54.2 % of control,B2
3,73.8 % of control,B3
4,63.5 % of control,B4

# Target: T3, FcγRIa
# Assay: as above
# Experimental: as §1, §2
row,He/Con_1a,Binder
1,101 % of control,B1
2,96.2 % of control,B2
3,97.7 % of control,B3
4,96.5 % of control,B4

# Target: T4, FcγRIIIa extracellular domain with C-terminal His tag (human, UniProt P08637 17-208)
# T4 construct: extracellular domain; also called FcgRIIIa; 3a
# T4 sequence (P08637 17-208): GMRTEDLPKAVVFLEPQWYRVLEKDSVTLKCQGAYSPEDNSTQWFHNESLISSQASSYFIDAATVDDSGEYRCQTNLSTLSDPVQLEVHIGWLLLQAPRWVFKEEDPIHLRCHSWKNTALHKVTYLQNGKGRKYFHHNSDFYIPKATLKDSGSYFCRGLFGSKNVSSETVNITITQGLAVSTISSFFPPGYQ
# Assay: SPR (Biacore); He/Con_3a divided by He/Con_2b (FcγRIIIa against FcγRIIb)
# In short: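 Antigen peptide was immobilized on a CM5 chip by amine coupling or on an SA chip via biotin; test antibody was then captured, FcγR in running buffer injected, and the chip stripped with 10 mM glycine-HCl, pH 1.5, between cycles. Runs used HBS-EP+ at 25 °C.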
row,He_3a/2b (IIIa/IIb) [ratio],Binder
1,1.43,B5
2,1.31,B6
3,1.24,B7
4,1.69,B8
5,1.53,B9
6,1.21,B10
7,1.2,B11
8,1.39,B12
9,1.29,B13
10,1.33,B14
11,1.69,B15
12,1.39,B16
13,1.28,B17
14,1.33,B18
15,1.37,B19
16,1.51,B20
17,1.26,B21
18,1.76,B22
19,1.69,B23
20,1.45,B24
21,1.43,B25
22,1.38,B26
23,1.52,B27
24,1.22,B28
25,1.26,B29
26,1.37,B30
27,1.72,B31
28,1.28,B32

# Target: T4, FcγRIIIa extracellular domain with …
# Assay: SPR (Biacore), antibody captured on antigen peptide chip, FcγR as analyte; GpH7-A5/GpH7-B3/GpL16-k0 = 100
row,He/Con_3a (relative binding activity),Binder
1,90.3 % of control,B5
2,135 % of control,B6
3,104 % of control,B7
4,109 % of control,B8
5,85.4 % of control,B9
6,83 % of control,B10
7,76.5 % of control,B11
8,85.6 % of control,B12
9,105 % of control,B13
10,88.5 % of control,B14
11,160 % of control,B15
12,56.4 % of control,B16
13,95.1 % of control,B17
14,104 % of control,B18
15,96.4 % of control,B19
16,86.1 % of control,B20
17,82.5 % of control,B21
18,29.6 % of control,B22
19,81.6 % of control,B23
20,113 % of control,B24
21,105 % of control,B25
22,66.7 % of control,B26
23,26.7 % of control,B27
24,76.4 % of control,B28
25,81.6 % of control,B29
26,73.9 % of control,B30
27,115 % of control,B31
28,99.3 % of control,B32

# Target: T2, FcγRIIb extracellular domain with …
# Assay: as above
row,He/Con_2b (relative binding activity),Binder
1,63.1 % of control,B5
2,103 % of control,B6
3,83.5 % of control,B7
4,64.5 % of control,B8
5,55.6 % of control,B9
6,68.6 % of control,B10
7,63.5 % of control,B11
8,61.4 % of control,B12
9,81.1 % of control,B13
10,66.8 % of control,B14
11,94.8 % of control,B15
12,40.5 % of control,B16
13,74.5 % of control,B17
14,78.3 % of control,B18
15,70.6 % of control,B19
16,56.9 % of control,B20
17,65.4 % of control,B21
18,16.9 % of control,B22
19,48.4 % of control,B23
20,77.9 % of control,B24
21,73.6 % of control,B25
22,48.3 % of control,B26
23,17.6 % of control,B27
24,62.7 % of control,B28
25,64.9 % of control,B29
26,53.9 % of control,B30
27,66.8 % of control,B31
28,77.4 % of control,B32
